Common to all, as to format: biochemical, Auricularia auricula-judae
Substrate in data set [1]: CCn1c(=NN=c2sc3cc(S(=O)(=O)O)ccc3n2CC)sc2cc(S(=O)(=O)O)ccc21
Nature of the data set: steady-state kinetics, absorbance increase, Michaelis-Menten fit. The conditions noted are these: 0.1 mM H2O2, 10 nM enzyme, 0.1 M tartrate pH 3, 25°C. The source says: (§1) steady-state kinetics, absorbance increase, Michaelis-Menten fit on DyP (dye-decolorizing peroxidase; mature DyP-I) of Auricularia auricula-judae

Substrate in data set [2]: COc1cccc(OC)c1O
The description is as above. The conditions noted are these: 0.1 mM H2O2, 10 nM enzyme, 0.1 M tartrate pH 3, 25°C.
From the text: as §1

Substrate in data set [3]: Nc1c(S(=O)(=O)O)cc(Nc2cccc(S(=O)(=O)CCOS(=O)(=O)O)c2)c2c1C(=O)c1ccccc1C2=O
The experiment in a line: steady-state kinetics, absorbance decrease, Michaelis-Menten fit. The conditions noted are these: 0.1 mM H2O2, 10 nM enzyme, 0.1 M tartrate pH 3.5, 25°C. From the text:
(§2) steady-state kinetics, absorbance decrease, Michaelis-Menten fit on DyP (dye-decolorizing peroxidase; mature DyP-I) of Auricularia auricula-judae

Substrate in data set [4]: Nc1c(N=Nc2ccc(S(=O)(=O)CCOS(=O)(=O)O)cc2)c(S(=O)(=O)O)cc2cc(S(=O)(=O)O)c(N=Nc3ccc(S(=O)(=O)CCOS(=O)(=O)O)cc3)c(O)c12
Described as above. The following applies: single set of constants, 0.1 mM H2O2, 10 nM enzyme, 0.1 M tartrate pH 3, 25°C, pH 3.0.
From the text: as §2

Substrate in data set [5]: COc1ccc(CO)cc1OC
Nature of the data set: steady-state kinetics, absorbance increase, Michaelis-Menten fit. The conditions noted are these: single set of constants, 0.1 mM H2O2, 100 nM enzyme, 0.1 M tartrate pH 2.5, 25°C, pH 2.5.
From the text: as §1

Where [6] appears, read: single set (high-turnover site).
[7] abbreviates: two-site kinetics: high-affinity low-turnover site.
[8] abbreviates: single set (high-turnover site, haem channel blocked), pH 3.5.
Setting [9] is: two-site kinetics: high-affinity low-turnover site, pH 3.0.
Where [10] appears, read: single set (low-turnover site), pH 3.0.
[11] abbreviates: single set (low-turnover site), pH 3.5.
The mark [12] stands for this setting: two-site kinetics: high-affinity low-turnover site, pH 3.5.

This is an account of results in PMC4357238, “Catalytic surface radical in dye-decolorizing peroxidase: a computational, spectroscopic and site-directed mutagenesis study” (Biochemical Journal, 2015).

B1: DyP (dye-decolorizing peroxidase; mature DyP-I) of Auricularia auricula-judae (Auricularia auricula-judae; G230L) (protein)
chain: ATSLNTDDIQGDILVGMHKQKQLFYFFAINDPATFKTHLASDIAPVVASVTQLSNVATQPLVALNIAFSNTGLLALGVTDNLGDSLFANGQAKDATSFKESTSSWVPQFAGTGIHGVIILASDTTDLIDQQVASIESTFGSSISKLYSLSASIRPGNEAGHEMFGFLDLIAQPAINGFNTPLPGQNIVDAGVIITGATNDPITRPSWAVGGSFLAFRQLEQLVPEFNKYLLDNAPAGSGSLQARADLLGARMVGRWKSGAPIDLTPTADDPALGADAQRNNNFTYSHAGFDLGSDQSHCPFSAHIRKTRPRADLGGSLTPPNLSAGANSIMRSGIPYGPEVTSAESASNTTTQERGLAFVAYQAQLSQGFHFLQQTWADNANFPPGKTPATVGLDPIIGQNNGQPRVVNGLLPSNSSASLSIPQFVVSHGGEYFFSPPISAIGGRLSA
notes: variants made on the same plasmid
For B1, the Km in data set [1] (setting [6]) worked out at 25 ± 2 µM; in data set [2] (setting [7]), 6.0 ± 0.4 µM; in data set [3] (setting [8]), 10 ± 3 µM; in data set [4], 5.8 ± 0.6 µM. Further, the catalytic constant (kcat) in data set [1] (setting [6]) was determined as 96 ± 2 s⁻¹; in data set [2] (setting [7]), 9.9 ± 0.2 s⁻¹; in data set [3] (setting [8]) it was 106 ± 9 s⁻¹; in data set [4] it was 1.2 ± 0.1 s⁻¹. Moreover, the kcat/Km in data set [1] (setting [6]) turned out to be 3.77e+06 ± 270000 M⁻¹ s⁻¹; in data set [2] (setting [7]), 1.6e+06 ± 70000 M⁻¹ s⁻¹; in data set [3] (setting [8]) it was 1.24e+07 ± 3e+06 M⁻¹ s⁻¹; in data set [4], 217000 ± 13000 M⁻¹ s⁻¹.

B2: DyP (dye-decolorizing peroxidase; mature DyP-I) of Auricularia auricula-judae (Auricularia auricula-judae; W438S) (protein)
chain: ATSLNTDDIQGDILVGMHKQKQLFYFFAINDPATFKTHLASDIAPVVASVTQLSNVATQPLVALNIAFSNTGLLALGVTDNLGDSLFANGQAKDATSFKESTSSWVPQFAGTGIHGVIILASDTTDLIDQQVASIESTFGSSISKLYSLSASIRPGNEAGHEMFGFLDGIAQPAINGFNTPLPGQNIVDAGVIITGATNDPITRPSWAVGGSFLAFRQLEQLVPEFNKYLLDNAPAGSGSLQARADLLGARMVGRWKSGAPIDLTPTADDPALGADAQRNNNFTYSHAGFDLGSDQSHCPFSAHIRKTRPRADLGGSLTPPNLSAGANSIMRSGIPYGPEVTSAESASNTTTQERGLAFVAYQAQLSQGFHFLQQTSADNANFPPGKTPATVGLDPIIGQNNGQPRVVNGLLPSNSSASLSIPQFVVSHGGEYFFSPPISAIGGRLSA
notes: as for B1
For B2, the Km in data set [1] (setting [9]) was found to be 30.0 ± 0.5 µM; in data set [5], 7360 ± 1270 µM; in data set [2] (setting [10]), 3560 ± 250 µM; in data set [3] (setting [11]), 3.9 ± 0.6 µM; in data set [4] it was 10.6 ± 1.0 µM. Moreover, the catalytic constant (kcat) was found to be 14.0 ± 1.0 s⁻¹ in data set [1] (setting [9]); 0.23 ± 0.01 s⁻¹ in data set [5]; 6.4 ± 0.1 s⁻¹ in data set [2] (setting [10]); 8.9 ± 0.6 s⁻¹ in data set [3] (setting [11]); 0.70 ± 0.02 s⁻¹ in data set [4]. Also, the kcat/Km came to 472000 ± 61000 M⁻¹ s⁻¹ in data set [1] (setting [9]); 32 ± 3 M⁻¹ s⁻¹ in data set [5]; 1800 ± 100 M⁻¹ s⁻¹ in data set [2] (setting [10]); 2.24e+06 ± 240000 M⁻¹ s⁻¹ in data set [3] (setting [11]); 68000 ± 4000 M⁻¹ s⁻¹ in data set [4].

B3: DyP (dye-decolorizing peroxidase; mature DyP-I) of Auricularia auricula-judae (Auricularia auricula-judae; Y398S) (protein)
chain: ATSLNTDDIQGDILVGMHKQKQLFYFFAINDPATFKTHLASDIAPVVASVTQLSNVATQPLVALNIAFSNTGLLALGVTDNLGDSLFANGQAKDATSFKESTSSWVPQFAGTGIHGVIILASDTTDLIDQQVASIESTFGSSISKLYSLSASIRPGNEAGHEMFGFLDGIAQPAINGFNTPLPGQNIVDAGVIITGATNDPITRPSWAVGGSFLAFRQLEQLVPEFNKYLLDNAPAGSGSLQARADLLGARMVGRWKSGAPIDLTPTADDPALGADAQRNNNFTYSHAGFDLGSDQSHCPFSAHIRKTRPRADLGGSLTPPNLSAGANSIMRSGIPSGPEVTSAESASNTTTQERGLAFVAYQAQLSQGFHFLQQTWADNANFPPGKTPATVGLDPIIGQNNGQPRVVNGLLPSNSSASLSIPQFVVSHGGEYFFSPPISAIGGRLSA
notes: as for B1
Turning to B3, in data set [3] (setting [7]), the Michaelis constant (Km) was found to be 7.4 ± 2.3 µM, the kcat was 26.0 ± 1.9 s⁻¹ and the kcat/Km is 3.37e+06 ± 350000 M⁻¹ s⁻¹.

B4: DyP (dye-decolorizing peroxidase; mature DyP-I) of Auricularia auricula-judae (Auricularia auricula-judae) (protein)
chain: ATSLNTDDIQGDILVGMHKQKQLFYFFAINDPATFKTHLASDIAPVVASVTQLSNVATQPLVALNIAFSNTGLLALGVTDNLGDSLFANGQAKDATSFKESTSSWVPQFAGTGIHGVIILASDTTDLIDQQVASIESTFGSSISKLYSLSASIRPGNEAGHEMFGFLDGIAQPAINGFNTPLPGQNIVDAGVIITGATNDPITRPSWAVGGSFLAFRQLEQLVPEFNKYLLDNAPAGSGSLQARADLLGARMVGRWKSGAPIDLTPTADDPALGADAQRNNNFTYSHAGFDLGSDQSHCPFSAHIRKTRPRADLGGSLTPPNLSAGANSIMRSGIPYGPEVTSAESASNTTTQERGLAFVAYQAQLSQGFHFLQQTWADNANFPPGKTPATVGLDPIIGQNNGQPRVVNGLLPSNSSASLSIPQFVVSHGGEYFFSPPISAIGGRLSA
notes: as for B1
For the protein B4, the Km in data set [1] (setting [7]) worked out at 3.1 ± 1.1 µM; in data set [2] (setting [7]), 6.0 ± 0.5 µM; in data set [3] (setting [12]), 14.0 ± 2.0 µM; in data set [4], 15.6 ± 2.0 µM. The catalytic constant (kcat) amounted to 7.4 ± 1.4 s⁻¹ in data set [1] (setting [7]), 8.0 ± 0.2 s⁻¹ in data set [2] (setting [7]), 32.0 ± 3.0 s⁻¹ in data set [3] (setting [12]) and 4.8 ± 0.2 s⁻¹ in data set [4]. The kcat/Km came to 2.37e+06 ± 420000 M⁻¹ s⁻¹ in data set [1] (setting [7]), 1.35e+06 ± 100000 M⁻¹ s⁻¹ in data set [2] (setting [7]), 2.23e+06 ± 200000 M⁻¹ s⁻¹ in data set [3] (setting [12]) and 310000 ± 20000 M⁻¹ s⁻¹ in data set [4].
